# Values quoted from earlier work as cited in publication PMC12071944, “Interaction Between Glucagon-like Peptide 1 and Its Analogs with Amyloid-β Peptide Affects Its Fibrillation and Cytotoxicity” (International Journal of Molecular Sciences, 2025).
# System: AD patients
# Settings: human, in vivo
# Excerpt: Worldwide, approximately 416 million individuals are affected by AD dementia, prodromal AD, or preclinical AD, accounting for 22% of the population aged 50 years and older.
molecule,measurement,value
"lecanemab (antibody, chains of the INN, looked up, V domains shown) VH: EVQLVESGGGLVQPGGSLRLSCSASGFTFSSFGMHWVRQAPGKGLEWVAYISSGSSTIYYGDTVKGRFTISRDNAKNSLFLQMSSLRAEDTAVYYCAREGGYYYGRSYYTMDYWGQGTTVTVSS VL: DVVMTQSPLSLPVTPGAPASISCRSSQSIVHSNGNTYLEWYLQKPGQSPKLLIYKVSNRFSGVPDRFSGSGSGTDFTLRISRVEAEDVGIYYCFQGSHVPPTFGPGTKLEIK",side effects,brain edema and microhemorrhages
